Patent US20210347908A1 (ELPISCIENCE SUZHOU BIOPHARMA, published 2021)
Changes are numbered by the printed parent chain.

B1: chimeric antibody 035c (antibody, V domains shown)
VH: QIQLVQSGPELRKPGETVKISCKASGYSFTNYAMNWVKQAPGKVLKWMGFINTYTGEPTYADDFKGRFAFSLETSASTAYLQINNLKNEDTATYFCTRTRGYYDFDGGAFDYWGQGTSLTVSS
VL: DIVMTQSQKFMSTSIGDRVSVTCKASQNVGTHLAWYQQKPGQSPKALIFSASYRYIGVPDRFTGSGSGTDFTLTITNVQSEDLAEYFCQQYNTYPLTFGAGTKLELK
B2: chimeric antibody 002c (antibody, V domains shown)
VH: EVKLEESGGGLVQPGGSMILSCVASGFTFRNYWMNWVRQSPERGLEWIAEITLKSNTYATHYAESVKGRFAISRDDSKSSFYLQMNDLRPEDTGIYYCTTFTKVVADWHLDVWGAGTTVTVSS
VL: DVLMTQTPLSLPVSLGDQASISCRSSQNIVHSNGNTYLEWYLQKPGQSPKLLIYKISNRFSGVPDRFSGSGSGTDFTLRISRVEAEDLGVYYCFQGSHVPFTFGSGTKLEIQ
B3: chimeric antibody 032c (antibody, V domains shown)
VH: B2 VH with K3R, I19K, A24V
VL: B2 VL with S14N, I56V, Q112K
B4: chimeric antibody 050c (antibody, V domains shown)
VH: QIQLVQSGPELKKPGETVKISCKASGYTFTHYSMHWVKQAPGKGLKWMGWINTETAEPTYVDDFKGRFAFSLEASASTAFFQINNLKNEDTATYFCARGGLRQGDYWGQGTTLTVSS
VL: QIVLTQSPPIMSASPGEKVTLTCSATSSVSASYLYWFQQKPGSSPKLWIYSTSNLASGVPARFSGSGSGTSYSLTISNMEPADAASYFCHQWSSYPYTFGGGTKLEIK
B5: chimeric antibody 060c (antibody, V domains shown)
VH: QVQLKESGPGLVAPSESLSITCTVSGFSLTNYDISWIRQSPGKGLEWLGVIWTGGDTNFNSAFMSRLSISKDKSKSQVFLKLNSLQTDDTAIYYCVRVQYFGGSYGPMDYWGQGISVTVSS
VL: DIQMTQASSYLSVSLGGRVTITCEASDHINDWLAWYQQTPGNAPRLLISGATSLETGVPSRFSGSGSGKDYTLSITSLQTEDIATYYCQQYWNTPLTFGAGTRLELK
B6: chimeric antibody 074c (antibody, V domains shown)
VH: QVQLQQPRAELVKPGASVMLSCKASGYTFSSYWIHWVRQGPGQGLEWIGLIHPNSGNTDCSETFKNKATLTVDTSSSTAYMQLSSLASEDSAVYYCARDGASYDWFVHWGQGTLVTVSA
VL: not shown
B7: chimeric antibody 022c (antibody, V domains shown)
VH: QIQLVQSGPELKKPGETVKISCKASGYTFTDYAMHWVKQAPGKGLKWMGWKNTETGESTYAEDFKGRFAFFLETSASTAYLQINNVKNEDTATYFCARGGYGSNYVMDYWGQGTSVIVSS
VL: DIQMTQSSSSFSVSLGDRVTITCKASEDIYNRLAWYQQKPGNAPRLLISGATSLETGVPSRFSGSGSGKDYTLSITSLQTEDVATYYCQQYWNSPRTFGGGTKLEIK
B8: reference antibody KWAR23 (antibody, V domains shown)
VH: EVQLQQSGAELVKPGASVKLSCTASGFNIKDYYIHWVQQRTEQGLEWIGRIDPEDGETKYAPKFQDKATITADTSSNTAYLHLSSLTSEDTAVYYCARWGAYWGQGTLVTVSS
VL: B4 VL with P9A, T26S, A31S, F37Y, N78S, P81A, A82E, Y97R, G101A, I107L
B9: reference antibody HEFLB (antibody, V domains shown)
VH: EVQLVQSGAEVKKPGESLRISCKASGYSFTSYWVHWVRQMPGKGLEWMGNIDPSDSDTHYSPSFQGHVTLSVDKSISTAYLQLSSLKASDTAMYYCVRGGTGTLAYFAYWGQGTLVTVSS
VL: DVVMTQSPLSLPVTLGQPASISCRSSQSLVHSYGNTYLYWFQQRPGQSPRLLIYRVSNRFSGVPDRFSGSGSGTDFTLKISRVEAEDVGVYYCFQGTHVPYTFGGGTKVEIK

The binders below were run against T1, Fc tagged human SIRPα v1 ECD recombinant protein (human, UniProt P78324 31-370) (assay: ELISA).
T1 construct: range 1-370; cloned range M1-R370 includes the signal peptide; also called hSIRPα V1; not shown: human IgG Fc region (hFc) of the pCPC vector
Procedure: (§1) Binding specificity of the purified hybridoma antibodies against SIRP family members was detected by ELISA assay using recombinant proteins of Fc tagged human SIRPα v1 ECD, human SIRPα v2 ECD, human SIRPβ ECD and human SIRPγ ECD. Briefly the antibodies were incubated with ELISA microplate coated antigens at 37° C. for 1 hour. After washing, horseradish peroxidase (HRP) labeled anti-mouse or anti-human IgG 2nd Ab (Sigma) was added and incubated at 37° C. for 1 hour. Then, 100 μl/well of TMB solution (Biotechnology) was added. After incubation for 15 minutes at room temperature, the reaction was stopped by the addition of 50 μl of 1N HCl. OD 450 nm was read and EC₅₀ was calculated. Other than 060 and HEFLB, all of the antibodies as tested can bind with both human SIRPα v1 and SIRPα v2. 060 and HEFLB can bind with human SIRPα v1 but not v2. Other than 055, all of the antibodies as tested can bind with human SIRPβ. In comparison with other known anti-SIRPα antibodies, only 022, 035 and 050 can bind with human SIRPγ weakly.
(§2) The purified chimeric antibodies were applied for binding specificity analysis and species cross reactivity analysis (refer to methods described in Example 3.3 and 3.4). FIGS. 1A to 1D show binding specificity of anti-SIRPα chimeric antibodies against recombinant proteins of human SIRPα v1 ECD (A), human SIRPα v2 ECD (B), human SIRPβ ECD (C) and human SIRPγ ECD (D) as measured by ELISA analysis.
B1 gave an EC50 of 0.08 nM. For B2, the EC50 was 0.06 nM. With B3 the EC50 was 0.12 nM. For B4, the EC50 was 0.11 nM. B5 was tested, and the EC50 was 0.08 nM. Binder B6 has an EC50 of 0.14 nM. B7 gave an EC50 of 0.11 nM. B8 was tested, and the EC50 was 0.1 nM. Work on B9 yielded an EC50 of 0.11 nM.

These binders were tested against T2, Fc tagged human SIRPβ ECD recombinant protein (human, UniProt O00241 30-371) (assay: ELISA).
T2 construct: range 1-371; cloned range includes the signal peptide; also called hSIRPβ; not shown: human IgG Fc region (hFc) of the pCPC vector
Procedure: as §1, §2
Binder B1 has an EC50 of 0.08 nM. In the case of B2, the EC50 is reported as 0.11 nM. B3 gave an EC50 of 0.12 nM. In the case of B4, the EC50 is reported as 0.08 nM. For B5, the EC50 was 0.24 nM. B6 gave an EC50 of 0.11 nM. B7 gave an EC50 of 0.08 nM. B8 showed an EC50 of 0.08 nM. B9 was tested, and the EC50 was 0.08 nM.

What follows are binders tested against T3, biotin labeled soluble human SIRPα v1 ECD recombinant protein (human, UniProt P78324 31-373, biotin labeled) (assay: competitive ELISA; competitor 055).
T3 construct: extracellular domain
Procedure: (§3) Competitive ELISA assay was used for epitope binning of 9 functional antibodies. Briefly excessive competitor antibody and biotin labeled soluble human SIRPα v1 ECD recombinant protein were co-incubated with ELISA microplate coated antibody. After washing, HRP-SA was added and incubated at 37° C. for 1 hour. Then, […] of TMB solution (Biotechnology) was added. After incubation for 15 minutes at room temperature, the reaction was stopped by the addition of […] of 1N HCl. OD 450 nm was read. Competition ratio was calculated. The antibodies that can compete each other for binding to SIRPα have the similar binding epitope.
B8 was tested, and the “% Competition” value was 1%. With B9 the “% Competition” value was 1%.

These binders were tested against T4, full length human SIRPα v1 stably expressed on CHOK1 cells (human, UniProt P78324 31-504) (assay: FACS on CHOK1 cells).
T4 construct: whole, on cells; also called CHOK1-human SIRPα v1-1B4 cells; CHOK1-human SIRPα v1
Procedure: (§4) Species cross reactivity of the purified hybridoma antibodies against human, cyno and mouse SIRPα was determined by FACS assay using CHOK1-human SIRPα v1-1B4 cells, CHOK1-cyno SIRPα-2A2 cells, and CHOK1-C57BL/6 mouse SIRPα-2.22 cells, which stably expressing SIRPα protein. Briefly the antibodies were incubated with 2×10⁵ target cells at 4° C. for 1 hour. After washing, fluorescence labeled anti-mouse or anti-human IgG 2nd antibody (Life Technologies) was added and incubated at 4° C. for 1 hour. Geometric median fluorescence intensity was detected and EC₅₀ was calculated. In particular, it is noted, in contrast to the other antibodies tested in the same experiment, 060 cannot bind with cyno SIRPα and 035 has cross reactivity against C57BL/6 mouse SIRPα.
as §2
For B1, the EC50 was 1.3 nM. Binder B2 has an EC50 of 2.4 nM. In the case of B3, the EC50 is reported as 3 nM. B4 was tested, and the EC50 was 2.4 nM. B5 gave an EC50 of 2.8 nM. B6 showed an EC50 of 5.5 nM. Binder B7 has an EC50 of 1.7 nM. Binder B8 has an EC50 of 2.8 nM. In the case of B9, the EC50 is reported as 11.2 nM.

What follows are binders tested against T5, full length C57BL/6 mouse SIRPα stably expressed on CHOK1 cells (mouse (C57BL/6), UniProt P97797 32-513) (assay: FACS on CHOK1 cells).
T5 construct: whole, on cells; also called CHOK1-C57BL/6 mouse SIRPα-2.22 cells
T5 sequence (looked up): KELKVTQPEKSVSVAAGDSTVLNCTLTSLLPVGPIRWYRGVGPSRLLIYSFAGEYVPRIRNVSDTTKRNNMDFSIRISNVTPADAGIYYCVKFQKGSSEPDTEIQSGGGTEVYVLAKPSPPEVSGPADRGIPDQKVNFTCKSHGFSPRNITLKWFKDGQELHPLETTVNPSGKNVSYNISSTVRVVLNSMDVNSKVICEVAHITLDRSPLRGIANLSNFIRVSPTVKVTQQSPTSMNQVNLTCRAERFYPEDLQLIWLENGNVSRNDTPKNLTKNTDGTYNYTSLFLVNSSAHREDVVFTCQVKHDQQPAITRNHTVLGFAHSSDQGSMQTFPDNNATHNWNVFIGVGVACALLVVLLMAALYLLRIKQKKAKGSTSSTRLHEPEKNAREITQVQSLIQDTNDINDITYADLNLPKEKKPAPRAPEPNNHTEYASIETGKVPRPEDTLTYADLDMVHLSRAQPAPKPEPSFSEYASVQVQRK
Procedure: as §4, §2
B1 was tested, and the “MFI at 10 nM” value was 13400 MFI. B2: no binding (tested: 10 nM). B3: no binding (tested: 10 nM). B4: no binding (tested: 10 nM). B5: no binding (tested: 10 nM). B6: no binding (tested: 10 nM). B7: no binding (tested: 10 nM). B8: no binding (tested: 10 nM). B9: no binding (tested: 10 nM).

Each binder was assayed against T3, biotin labeled soluble human SIRPα v1 … (assay: competitive ELISA; competitor 29-AM4-5).
Procedure: as §3
In the case of B8, the “% Competition” value is reported as 54%. B9 was tested, and the “% Competition” value was 70%.

Biological target: T4, full length human SIRPα v1 stably …
Experiment: FACS on CHOK1 cells
Remark: another data set of the same source
Procedure: as §4, with “SIRPα. […]” for “SIRPα.”
B1 showed an EC50 of 1.3 nM. With B2 the EC50 was 2.4 nM. In the case of B3, the EC50 is reported as 3 nM. With B4 the EC50 was 2.4 nM. For B5, the EC50 was 2.8 nM. For B6, the EC50 was 5.5 nM. B7 was tested, and the EC50 was 1.7 nM. Work on B8 yielded an EC50 of 2.8 nM. B9 was tested, and the EC50 was 11.2 nM.

Biological target: T1, Fc tagged human SIRPα v1 ECD …
Experiment: ELISA
Remark: another data set of the same source
Procedure: as §1, §2
With B1 the EC50 was 0.08 nM. In the case of B2, the EC50 is reported as 0.06 nM. Work on B3 yielded an EC50 of 0.12 nM. In the case of B4, the EC50 is reported as 0.11 nM. B5 gave an EC50 of 0.08 nM. Work on B6 yielded an EC50 of 0.14 nM. B7 showed an EC50 of 0.11 nM. With B8 the EC50 was 0.1 nM. B9 gave an EC50 of 0.11 nM.

Biological target: T4, full length human SIRPα v1 stably …
Experiment: FACS on CHOK1 cells
Remark: another data set of the same source
Binder B1 has an EC50 of 1.5 nM. B8 was tested, and the EC50 was 2.8 nM. B9 gave an EC50 of 11.2 nM.

What follows are binders tested against T3, biotin labeled soluble human SIRPα v1 … (assay: competitive ELISA; competitor 035).
Procedure: as §3
B8 was tested, and the “% Competition” value was 4%. With B9 the “% Competition” value was 51%.
